The target in this assay is T1, human GPRC5D (human, UniProt Q9NZD1 1-345).
T1 construct: on transfected HEK293 or RBL cells, or endogenous on MM1R, H929, OPM2, LP-1, JIM3 and patient plasma cells; also called G-protein coupled receptor family C group 5 member D; hGPRC5D
The assay can be described thus: FACS, human GPRC5D cells.

The record followed here is patent publication US20230227548A1 (published 2023).

T1 sequence (Q9NZD1 whole entry): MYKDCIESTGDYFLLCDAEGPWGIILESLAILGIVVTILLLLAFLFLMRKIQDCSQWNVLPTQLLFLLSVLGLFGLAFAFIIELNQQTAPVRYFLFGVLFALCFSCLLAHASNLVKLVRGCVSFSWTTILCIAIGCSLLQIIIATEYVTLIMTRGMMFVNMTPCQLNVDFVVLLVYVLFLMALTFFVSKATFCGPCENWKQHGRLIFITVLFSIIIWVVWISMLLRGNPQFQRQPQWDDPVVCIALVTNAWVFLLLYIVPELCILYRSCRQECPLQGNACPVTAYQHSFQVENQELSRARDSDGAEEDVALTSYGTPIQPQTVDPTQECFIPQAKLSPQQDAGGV

B1: GC5B471 (antibody, V domains shown)
VH: EVQLVQSGAEVKKPGESLKISCKGSGYSFTSYYIGWVRQMPGKGLEWMGIIYPGASDTRYSPSFQGQVTISADKSISTAYLQWSSLKASDTAMYYCARVYSFGGRHKALFDYWGQGTLVTVSS
VL: EIVLTQSPATLSLSPGERATLSCRASQSVSSYLAWYQQKPGQAPRLLIYDASNRATGIPARFSGSGSGTDFTLTISSLEPEDFAVYYCQQRSNWPLTFGQGTKVEIK
notes: GC5B164 PTM variant, Hc GC5H278
As for B1, the binding result is “binds”.

B2: GC5B472 (antibody, V domains shown)
VH: EVQLVQSGAEVKKPGESLKISCKGSGYSFTSYVIGWVRQMPGKGLEWMGIIYPGASDTRYSPSFQGQVTISADKSISTAYLQWSSLKASDTAMYYCARVYSFGGRHKALFDYWGQGTLVTVSS
VL: EIVLTQSPATLSLSPGERATLSCRASQSVSSYLAWYQQKPGQAPRLLIYDASNRATGIPARFSGSGSGTDFTLTISSLEPEDFAVYYCQQRSNWPLTFGQGTKVEIK
notes: GC5B164 PTM variant, Hc GC5H277
As for B2, the binding result is “binds”.

B3: GC5B475 (antibody, V domains shown)
VH: EVQLVQSGAEVKKPGESLKISCKGSGYSFTSYAIGWVRQMPGKGLEWMGIIYPGASDTRYSPSFQGQVTISADKSISTAYLQWSSLKASDTAMYYCARVYSFGGRHKALFDYWGQGTLVTVSS
VL: EIVLTQSPATLSLSPGERATLSCRASQSVSSYLAWYQQKPGQAPRLLIYDASNRATGIPARFSGSGSGTDFTLTISSLEPEDFAVYYCQQRSNWPLTFGQGTKVEIK
notes: GC5B164 PTM variant, Hc GC5H274
For the molecule B3, the binding result was “binds”.

B4: GC5B478 (antibody, V domains shown)
VH: EVQLVQSGAEVKKPGESLKISCKGSGYSFTSYFIGWVRQMPGKGLEWMGIIYPGSSDTRYSPSFQGQVTISADKSISTAYLQWSSLKASDTAMYYCARVYSFGGRHKALFDYWGQGTLVTVSS
VL: EIVLTQSPATLSLSPGERATLSCRASQSVSSYLAWYQQKPGQAPRLLIYDASNRATGIPARFSGSGSGTDFTLTISSLEPEDFAVYYCQQRSNWPLTFGQGTKVEIK
notes: GC5B164 PTM variant, Hc GC5H271
For B4, the binding result is recorded as “binds”.

B5: GC5B474 (antibody, V domains shown)
VH: EVQLVQSGAEVKKPGESLKISCKGSGYSFTSYGIGWVRQMPGKGLEWMGIIYPGASDTRYSPSFQGQVTISADKSISTAYLQWSSLKASDTAMYYCARVYSFGGRHKALFDYWGQGTLVTVSS
VL: EIVLTQSPATLSLSPGERATLSCRASQSVSSYLAWYQQKPGQAPRLLIYDASNRATGIPARFSGSGSGTDFTLTISSLEPEDFAVYYCQQRSNWPLTFGQGTKVEIK
notes: GC5B164 PTM variant, Hc GC5H275
Consider B5, for which the binding result is reported as “binds”.

B6: GC5B473 (antibody, V domains shown)
VH: EVQLVQSGAEVKKPGESLKISCKGSGYSFTSYFIGWVRQMPGKGLEWMGIIYPGASDTRYSPSFQGQVTISADKSISTAYLQWSSLKASDTAMYYCARVYSFGGRHKALFDYWGQGTLVTVSS
VL: EIVLTQSPATLSLSPGERATLSCRASQSVSSYLAWYQQKPGQAPRLLIYDASNRATGIPARFSGSGSGTDFTLTISSLEPEDFAVYYCQQRSNWPLTFGQGTKVEIK
notes: GC5B164 PTM variant, Hc GC5H276
With B6, the binding result was “binds”.

B7: GC5B477 (antibody, V domains shown)
VH: EVQLVQSGAEVKKPGESLKISCKGSGYSFTSYVIGWVRQMPGKGLEWMGIIYPGSSDTRYSPSFQGQVTISADKSISTAYLQWSSLKASDTAMYYCARVYSFGGRHKALFDYWGQGTLVTVSS
VL: EIVLTQSPATLSLSPGERATLSCRASQSVSSYLAWYQQKPGQAPRLLIYDASNRATGIPARFSGSGSGTDFTLTISSLEPEDFAVYYCQQRSNWPLTFGQGTKVEIK
notes: GC5B164 PTM variant, Hc GC5H272
Turning to B7, the binding result was “binds”.

B8: GC5B476 (antibody, V domains shown)
VH: EVQLVQSGAEVKKPGESLKISCKGSGYSFTSYYIGWVRQMPGKGLEWMGIIYPGSSDTRYSPSFQGQVTISADKSISTAYLQWSSLKASDTAMYYCARVYSFGGRHKALFDYWGQGTLVTVSS
VL: EIVLTQSPATLSLSPGERATLSCRASQSVSSYLAWYQQKPGQAPRLLIYDASNRATGIPARFSGSGSGTDFTLTISSLEPEDFAVYYCQQRSNWPLTFGQGTKVEIK
notes: GC5B164 PTM variant, Hc GC5H273
With B8, the binding result was “binds”.
